Marks after values point to notes of the source that are not given here.
B1: 237A6: Nanobody (VHH) raised against human CXCR4, SEQ ID NO: 248 (protein)
VHH: EVQLVESGGGLVQAGGSLRLSCAASGSIFSLNAMGWYRQAPGKQRELVAGITSSTSTYYADSVKGRFTISRDNTKNTVYLQMNSLKPEDTAVYYCNVDCPDYYSDYECPLEDRGQGTQVTVSS
modifications: Nanobody, Nanobody constructs or fragments thereof
B2: 237D1: Nanobody (VHH) raised against human CXCR4, SEQ ID NO: 249 (protein)
VHH: EVQLVESGGGLAQPGGPLRLTCEASGVIYSVNDMGWYRQAPGKQRELVAVITSGGGTNYVDSVKGRFTISGDNRKKTVYLQMNSLKPEDTAVYYCSIYYSSGISTLRSWGQGTQVTVSS
modifications: Nanobody, Nanobody constructs or fragments thereof
B3: 237D2: Nanobody (VHH) raised against human CXCR4, SEQ ID NO: 241 (protein)
VHH: EVQLVESGGGLVQPGGSLRLSCAASGFTFDDYAMSWVRQAPGKGLEWVSAISWNGGSTDYADSVKGRFTISRDNAKNTLYLQMNSLKSEDTAEYYCARDQGPFYSGTYYYTRQYGYRGQGTQVTVSS
modifications: Nanobody, Nanobody constructs or fragments thereof
B4: 237G7: Nanobody (VHH) raised against human CXCR4, SEQ ID NO: 251 (protein)
VHH: EVQLVESGGGLVQPGGSLRLSCAASSFIGNYHAIVWLRQAPGKELEGVSCITSRDSITYYASFVKGRFTISRDDAKNTVYLQMNNLKPEDTAVYYCAVBTSMTCPTLIVRFNYRGQGTQVTVSS
modifications: Nanobody, Nanobody constructs or fragments thereof
B5: 238B10: Nanobody (VHH) raised against human CXCR4, SEQ ID NO: 242 (protein)
VHH: EVQLVESGGGFVQAGGSLRLSCETSGRPLLGYTIAWFRQVPGKEREFVAYHRWSDGANLYADSVKGRFTISGHNAKNTVSLQMNSLKPEDTAVYYCAAARMTTSNDKEYLYWGQGTQVTVSS
modifications: Nanobody, Nanobody constructs or fragments thereof
B6: 238D2-10GS-238D2: bivalent Nanobody, 238D2 linked to 238D2 by a 10 amino acid GGGGS linker (protein)
chain: EVQLVESGGGLVQTGGSLRLSCAASGFTFSSYAMSWVRQAPGKGLEWVSGIKSSGDSTRYAGSVKGRFTISRDNAKNMLYLQMYSLKPEDTAVYYCAKSRVSRTGLYTYDNRGQGTQVTVSSGGGGSGGGGSEVQLVESGGGLVQTGGSLRLSCAASGFTFSSYAMSWVRQAPGKGLEWVSGIKSSGDSTRYAGSVKGRFTISRDNAKNMLYLQMYSLKPEDTAVYYCAKSRVSRTGLYTYDNRGQGTQVTVSS
modifications: Nanobody, Nanobody constructs or fragments thereof
notes: bivalent Nanobody, 238D2 linked to 238D2 by a 10 amino acid GGGGS linker
B7: 238D4-20GS-238D4: bivalent Nanobody, 238D4 linked to 238D4 by a 20 amino acid GGGGS linker (protein)
chain: EVQLMESGGGLVQAGGSLRLSCAASGRTFNNYAMGWFRRAPGKEREFVAAITRSGVRSGVSAIYGDSVKDRFTISRDNAKNTLYLQMNSLKPEDTAVYTCAASAIGSGALRRFEYDYSGQGTQVTVSSGGGGSGGGGSGGGGSGGGGSEVQLMESGGGLVQAGGSLRLSCAASGRTFNNYAMGWFRRAPGKEREFVAAITRSGVRSGVSAIYGDSVKDRFTISRDNAKNTLYLQMNSLKPEDTAVYTCAASAIGSGALRRFEYDYSGQGTQVTVSS
modifications: Nanobody, Nanobody constructs or fragments thereof
notes: bivalent Nanobody, 238D4 linked to 238D4 by a 20 amino acid GGGGS linker
B8: 238D2-20GS-238C5 (protein)
chain: EVQLVESGGGLVQTGGSLRLSCAASGFTFSSYAMSWVRQAPGKGLEWVSGIKSSGDSTRYAGSVKGRFTISRDNAKNMLYLQMYSLKPEDTAVYYCAKSRVSRTGLYTYDNRGQGTQVTVSSGGGGSGGGGSGGGGSGGGGSEVQLMESGGGLVQAGGSLRLACAASGFTFEDYAIGWFRKAPGKEREGVSCISGSDGSTTYADSVKGRFTISTDNAKNTVYLEMNSLKPEDTAVYYCAQQYGVGGRVVCPGPYEYDVWGQGTQVTVSS
modifications: Nanobody, Nanobody constructs or fragments thereof
B9: 238D2-20GS-238B10 (protein)
chain: EVQLVESGGGLVQTGGSLRLSCAASGFTFSSYAMSWVRQAPGKGLEWVSGIKSSGDSTRYAGSVKGRFTISRDNAKNMLYLQMYSLKPEDTAVYYCAKSRVSRTGLYTYDNRGQGTQVTVSSGGGGSGGGGSGGGGSGGGGSEVQLVESGGGFVQAGGSLRLSCETSGRPLLGYTIAWFRQVPGKEREFVAYHRWSDGANLYADSVKGRFTISGHNAKNTVSLQMNSLKPEDTAVYYCAAARMTTSNDKEYLYWGQGTQVTVSS

Legend:
[1] = molecular target: T1, CXCR4 (Homo sapiens, UniProt P61073); assay: [125I]-238D2 competition binding on membranes from HEK293T cells transiently expressing CXCR4; details: for displacement of [125I]-238D2 from CXCR4: [125I]-238D2 3 nM; for Displacem. (%) of [125I]-238D2 at 0.5 μM: at highest test concentration of 0.5 μM (footnote a: no significant displacement; b: maximum not reached)
T1 sequence (P61073 whole entry): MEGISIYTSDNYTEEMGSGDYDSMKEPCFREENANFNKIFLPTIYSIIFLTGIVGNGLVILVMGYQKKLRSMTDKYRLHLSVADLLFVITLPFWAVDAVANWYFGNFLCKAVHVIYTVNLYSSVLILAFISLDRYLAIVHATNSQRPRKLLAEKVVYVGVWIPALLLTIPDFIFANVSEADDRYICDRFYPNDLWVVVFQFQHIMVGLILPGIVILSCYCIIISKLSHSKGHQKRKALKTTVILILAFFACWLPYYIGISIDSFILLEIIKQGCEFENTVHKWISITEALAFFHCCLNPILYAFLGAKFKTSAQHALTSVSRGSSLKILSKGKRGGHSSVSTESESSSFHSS
Method: (§1) HEK293T cells were maintained at 37° C. in a humidified 5% CO2, 95% air atmosphere in Dulbecco's modified Eagle's medium (DMEM) containing 2 mM L-glutamine, 50 IU/ml penicillin, 50 μg/ml streptomycin, and 10% (v/v) fetal calf serum. Jurkat cells were cultured in a humidified 5% CO2, 95% air atmosphere in a 1:1 mixture of Dulbecco's modified Eagle's medium (DMEM) and Ham's F12 medium containing 2 mM L-glutamine, 50 IU/ml penicillin, 50 μg/ml streptomycin, and 10% (v/v) fetal calf serum. […] [^125 I]-Labelling— Radiolabeling of Nanobodies with ^125I was performed using the Iodo-gen method (Pierce, Rockford, Ill.) according to the manufacturer's protocol. ^125I-labeled Nanobodies was separated from free iodine (>99%) using a Sephadex G-25 gel filtration column (Amersham Biosciences, Piscataway, N.J.). […] Competition Binding Assays— Membranes from HEK293T cells transiently expressing CXCR3 or CXCR4 were prepared 48 h after transfection as follows. Cells were washed and scraped from the cell culture dishes with ice-cold PBS containing 1 mm EDTA. The scraped cells were pelleted at 1500×g for 10 min at 4° C. The pellet was washed and then resuspended in ice-cold membrane buffer (15 mM Tris, pH 7.5, 1 mM EGTA, 0.3 mM EDTA, and 2 mM MgCl2). The cell suspension was homogenized by 10 strokes at 1200 rpm using a Teflon-glass homogenizer and rotor and further subjected to three freeze-thaw cycles using liquid nitrogen. Membranes were separated by centrifugation at 40,000 g for 25 min at 4° C. The membrane pellet was washed and resuspended in ice-cold Tris-sucrose buffer (20 mM Tris, pH 7.4, and 250 mM sucrose) and frozen in liquid nitrogen. The total protein was determined using a Bradford assay (Bio-Rad). […] Membranes were then harvested over polyethylenimine (0.5%)-treated Whatman GF/C filter plates and washed three times with ice cold binding buffer containing 500 mM NaCl. Plates were counted by liquid scintillation. Inositol Phosphate Accumulation Assay— 24 hours post transfection with pcDNA3.1-CXCR4 and pcDNA1-HA-mG {alpha} qi5 (see Verzijl et al, 2008 supra), 250.000 cells were seeded into 24-wells plates and labelled overnight using inositol-free minimal essential medium supplemented with 1 μCi myo-[2-^3H]-inositol. The next day, the cells were washed once to remove not incorporated myo-[2-^3H]-inositol. […] In agonist experiments, the cells were directly stimulated with test compounds and LiCl (10 mM) in assay buffer for 2 h at 37° C. The stimulation was stopped by aspirating the stimulation medium and adding ice-cold 10 mM formic acid. The accumulated inositol phosphates were isolated by anion exchange chromatography and counted by liquid scintillation. CRE Reporter Gene Assay— HEK239T cells were transfected with pCRE/β-galactosidase (Chen W, Shields T S, Stork P J S, Cone R D (1995) Anal Biochem 226:349-354) and plasmids (pcDEF3 or pcDNA3.1) encoding the indicated receptors. 40,000 transfected cells per well were seeded into 96 well plates and grown in DMEM supplemented with 10% fetal calf serum. The medium was replaced 32 h after transfection by serum-free DMEM supplemented with 0.5% bovine serum albumin and ligands as indicated. […] The β-galactosidase activity was determined by the measurement of absorption at 420 nm with a PowerwaveX340 plate reader (Bio-Tek Instruments Inc., Winooski, Vt.) after incubation with the assay buffer when the OD420 value for forskolin (3 μM) controls reached 0.4-0.6. Chemotaxis Assay— The chemotactic responsiveness of Jurkat 3D cells was assessed using ChemoTx™ plates (Receptor Technologies Ltd., Oxon, UK) in which a upper cell-containing compartment is separated from a lower chemoattractant-containing compartment by a polyvinylpyrollidone-free polycarbonate filter with 5-μm pores. Cells were harvested, washed and resuspended in RPMI containing 0.5% bovine serum albumin and then loaded to 150,000 cells per well in a volume of 25 μl into the upper compartment of the chemotaxis chamber.

[2] = molecular target: T1, CXCR4; assay: [125I]-238D4 competition binding on membranes from HEK293T cells transiently expressing CXCR4; details: for displacement of [125I]-238D4 from CXCR4: [125I]-238D4 3 nM; for Displacem. (%) of [125I]-238D4 at 0.5 μM: at highest test concentration of 0.5 μM (footnote a: no significant displacement; b: maximum not reached)
Method: as §1

[3] = molecular target: T1, CXCR4; assay: [125I]-CXCL12 competition binding on membranes from HEK293T cells transiently expressing CXCR4; details: for Displacem. (%) of [125I]-CXCL12 at 0.5 μM: at highest test concentration of 0.5 μM (footnote a: no significant displacement); for displacement of specifically bound [125I]-CXCL12: purified ligands, highest Nanobody test concentration 0.5 μM; for Binding (binding efficiency, competition binding with [125I]-CXCL12): screening of Nanobody clone pools; for Binding (binding efficiency, competition binding with [125I]-CXCL12) / Displacem. (%) of [125I]-CXCL12 (maximal displacement), bivalent Nanobodies / pKi, [125I]-CXCL12, bivalent Nanobodies: membranes from HEK293T cells transiently expressing CXCR4; for Rel. potency, relative to monovalent 238D2: [125I]-CXCL12 displacement, potency relative to those of monovalent 238D2; for Displacem. (%) of [125I]-CXCL12 (maximal displacement), bivalent Nanobodies / pKi, [125I]-CXCL12, bivalent Nanobodies: mean ± S.E.M.
Method: as §1

Molecule	displacement of [125I]-238D2 from CXCR4 [1]	Displacem. (%) of [125I]-238D2 at 0.5 μM [1]	displacement of [125I]-238D4 from CXCR4 [2]	Displacem. (%) of [125I]-238D4 at 0.5 μM [2]	Displacem. (%) of [125I]-CXCL12 at 0.5 μM [3]	displacement of specifically bound [125I]-CXCL12 [3]	Binding (binding efficiency, competition binding with [125I]-CXCL12) [3]	affinity to CXCR4 ([3]; in words)	Rel. potency, relative to monovalent 238D2 [3]	Displacem. (%) of [125I]-CXCL12 (maximal displacement), bivalent Nanobodies [3] [%]	pKi, [125I]-CXCL12, bivalent Nanobodies [3]	Displacem. (%) of [125I]-CXCL12 at 0.5 μM, bivalent Nanobodies ([3]; maximum not reached at the highest test concentration of 0.5 μM, displacement at 0.5 μM)
B1	unable to inhibit	0^a %	unable to inhibit	0^a %	0^a %	unable to displace	+ (+ = 30-69%)					
B2	unable to inhibit	0^a %	unable to inhibit	0^a %	0^a %	unable to displace	+ (+ = 30-69%)					
B3	unable to inhibit	0^a %	unable to inhibit	0^a %	0^a %	unable to displace						
B4	unable to inhibit	0^a %	unable to inhibit	0^a %	0^a %	unable to displace	+ (+ = 30-69%)					
B5								inactive				
B6									14^a	95 ± 5	9.16 ± 0.08	
B7										96 ± 5		
B8									0.18^a	110 ± 2	7.35 ± 0.07	
B9									<0.1^a		<7.00	43 ± 11^c %

— US9212226B2, “Amino acid sequences directed against CXCR4 and other GPCRs and compounds comprising the same” (Ablynx N.V., priority 2008, dated 2015)
